Assay results taken from paper doi:10.1101/2025.08.13.670122.
Read-outs that look alike come from different tables or passages of the source. Values belong to the substance of their own block, whether it stands above or below them.

Legend:
[1] = target: human Angiotensin II Type 1 receptor (human) (UniProt P30556)
[2] = target: human Angiotensin II Type 1 receptor (human) (UniProt P30556); remark: listed apart in the source
[3] = target: human Angiotensin II Type 1 receptor (human) (UniProt P30556); remark: listed apart in the source
[4] = target: human Angiotensin II Type 1 receptor (human) (UniProt P30556); remark: listed apart in the source
[5] = target: human Angiotensin II Type 1 receptor (human) (UniProt P30556); remark: listed apart in the source
[6] = target: human Angiotensin II Type 1 receptor (human) (UniProt P30556); remark: listed apart in the source
[7] = target: human Angiotensin II Type 1 receptor (human) (UniProt P30556); test: radioligand binding

Sequence of human Angiotensin II Type 1 receptor (human) (P30556 whole entry): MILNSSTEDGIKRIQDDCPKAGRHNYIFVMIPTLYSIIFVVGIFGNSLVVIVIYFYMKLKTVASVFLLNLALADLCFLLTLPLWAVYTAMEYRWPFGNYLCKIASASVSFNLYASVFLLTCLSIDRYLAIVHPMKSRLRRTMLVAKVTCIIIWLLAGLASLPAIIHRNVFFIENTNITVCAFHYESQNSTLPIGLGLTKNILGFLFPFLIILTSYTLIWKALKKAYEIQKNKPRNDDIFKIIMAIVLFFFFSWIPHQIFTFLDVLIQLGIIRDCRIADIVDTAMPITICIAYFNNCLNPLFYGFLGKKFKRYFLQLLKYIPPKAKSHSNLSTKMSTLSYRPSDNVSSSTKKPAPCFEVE

Substance: AngII analog 11 (Tyr(Me) at position 8) (from UniProt P01019)
Ki [1]: 0.23 nM

Substance: AngII analog 12 (Tyr(Bzl) at position 8) (peptide)
Gαq activation (GABY BRET sensor, HEK293 cells expressing AT1R), EC50 [2]: > 10000 nM
β-arrestin2 recruitment (BRET, HEK293 cells expressing AT1R), EC50 [2]: 2.5 nM

Substance: AngII analog 13 (Bip at position 8) (peptide)
β-arrestin2 recruitment (BRET, HEK293 cells expressing AT1R), EC50 [2]: 15 nM

Substance: AngII analog 15 (Dip at position 8) (peptide)
Gαq activation (GABY BRET sensor, HEK293 cells expressing AT1R), EC50 [2]: 7.9 nM

Substance: AngII analog 20 (4ThzAla at position 8) (peptide)
Gαq activation (GABY BRET sensor, HEK293 cells expressing AT1R), EC50 [3]: 14 nM

Substance: AngII analog 22b ((m-NO2)Phe at position 8) (peptide)
Gαq activation (GABY BRET sensor, HEK293 cells expressing AT1R), EC50 [4]: 4.4 nM

Substance: AngII analog 23a ((o-CN)Phe at position 8) (peptide)
Gαq activation (GABY BRET sensor, HEK293 cells expressing AT1R), EC50 [5]: > 10000 nM
β-arrestin2 recruitment (BRET, HEK293 cells expressing AT1R), EC50 [5]: < 2.5 nM

Substance: AngII analog 23b ((m-CN)Phe at position 8) (peptide)
Gαq activation (GABY BRET sensor, HEK293 cells expressing AT1R), EC50 [4]: 5.9 nM

Substance: AngII analog 24a ((o-OH)Phe at position 8) (peptide)
Gαq activation (GABY BRET sensor, HEK293 cells expressing AT1R), EC50 [6]: 2.1 nM

Substance: AngII analog 24b ((m-OH)Phe at position 8) (peptide)
Gαq activation (GABY BRET sensor, HEK293 cells expressing AT1R), EC50 [4]: 4.6 nM

Substance: AngII analog 28b ((m-Br)Phe at position 8) (peptide)
Gαq activation (GABY BRET sensor, HEK293 cells expressing AT1R), EC50 [4]: 1.9 nM

Substance: AngII analog 29c ((p-Cl)Phe at position 8) (peptide)
Gαq activation (GABY BRET sensor, HEK293 cells expressing AT1R), EC50 [4]: 2.5 nM

Substance: AngII analog 30a ((o-F)Phe at position 8) (peptide)
Gαq activation (GABY BRET sensor, HEK293 cells expressing AT1R), EC50 [6]: 1 nM

Substance: AngII analog 30c ((p-F)Phe at position 8) (peptide)
Gαq activation (GABY BRET sensor, HEK293 cells expressing AT1R), EC50 [4]: 1.7 nM

Other lines, results leading:

Gαq activation (GABY BRET sensor, HEK293 cells expressing AT1R), EC50 [2]: 1.1 nM
β-arrestin2 recruitment (BRET, HEK293 cells expressing AT1R), EC50 [2]: 0.36 nM
Substance: AngII analog 11 (Tyr(Me) at position 8) (peptide)

β-arrestin2 recruitment (BRET, HEK293 cells expressing AT1R), EC50 [2]: 26 nM
Substance: AngII analog 14 (p-tBuPhe at position 8) (peptide)

Gαq activation (GABY BRET sensor, HEK293 cells expressing AT1R), EC50 [2]: > 10000 nM
Substance: AngII analog 16 (Ser(Bzl) at position 8) (peptide)

Gαq activation (GABY BRET sensor, HEK293 cells expressing AT1R), EC50 [4]: 4.5 nM
Substance: AngII analog 27b ((m-I)Phe at position 8) (peptide)

Gαq activation (GABY BRET sensor, HEK293 cells expressing AT1R), EC50 [4]: 1.5 nM
Substance: AngII analog 29b ((m-Cl)Phe at position 8) (peptide)

Gαq activation (GABY BRET sensor, HEK293 cells expressing AT1R), EC50 [4]: 2.4 nM
Substance: AngII analog 30b ((m-F)Phe at position 8) (peptide)

Ki [7]: 6.6 nM
Substance: TRV027 (peptide)
